Data as given in paper doi:10.1101/2020.05.15.096610 (bioRxiv, 2020).
Like-named read-outs stand apart in the source and are kept apart here.

B1: Vibrio alginolyticus PomB (natural protein, UniProt O06874 1-315, looked up)
chain: MDDEDNKCDCPPPGLPLWMGTFADLMSLLMCFFVLLLSFSEMDVLKFKQIAGSMKFAFGVQNQLEVKDIPKGTSIIAQEFRPGRPEPTPIDVIMQQTMDITQQTLEFHEGESDRAGGTKRDEGKLTGGQSPATSTQNNESAEADMQQQQSKEMSQEMETLMESIKKALEREIEQGAIEVENLGQQIVIRMREKGAFPEGSAFLQPKFRPLVRQIAELVKDVPGIVRVSGHTDNRPLDSELYRSNWDLSSQRAVSVAQEMEKVRGFSHQRLRVRGMADTEPLLPNDSDDNRALNRRVEISIMQGEPLYSEEVPVIQ
B2: Campylobacter jejuni MotB (natural protein, UniProt Q0PBH3 1-247, looked up)
chain: MAKKHKCPECPAGEKWAVPYADFLSLLLALFIALWAISKTNPAKVEALKTEFVKIFDYTSTQTVKEESKTQEKYKGAAKEESDELKSLKQMTMTQQETIKRLQAALDQSDNQVALNLPSKVEFERGSAQIVSADIQDYLKRMAELTTYLPPQAKIEIRGYTDNSDSIIRSYELAYQRAENVLKYFIEGGANLKNISIKSYGLNNPINGNPQTLENNRVEIYFKVDTADTSTQKSVLELINKIGTKAP
B3: Campylobacter jejuni MotB(Δ41-60) (natural protein, UniProt Q0PBH3 1-247, looked up)
chain: MAKKHKCPECPAGEKWAVPYADFLSLLLALFIALWAISKTTQTVKEESKTQEKYKGAAKEESDELKSLKQMTMTQQETIKRLQAALDQSDNQVALNLPSKVEFERGSAQIVSADIQDYLKRMAELTTYLPPQAKIEIRGYTDNSDSIIRSYELAYQRAENVLKYFIEGGANLKNISIKSYGLNNPINGNPQTLENNRVEIYFKVDTADTSTQKSVLELINKIGTKAP
B4: Campylobacter jejuni MotB(Δ41-60, D22N) (natural protein, UniProt Q0PBH3 1-247, looked up)
chain: MAKKHKCPECPAGEKWAVPYANFLSLLLALFIALWAISKTTQTVKEESKTQEKYKGAAKEESDELKSLKQMTMTQQETIKRLQAALDQSDNQVALNLPSKVEFERGSAQIVSADIQDYLKRMAELTTYLPPQAKIEIRGYTDNSDSIIRSYELAYQRAENVLKYFIEGGANLKNISIKSYGLNNPINGNPQTLENNRVEIYFKVDTADTSTQKSVLELINKIGTKAP

Legend:
cryo-EM structure [1] = target: the molecule itself; assay: cryo-EM structure
cryo-EM structure [2] = target: the molecule itself; assay: cryo-EM structure; remark: listed apart in the source

Protein | binding result (cryo-EM structure [2]) | further results
B1 |  | stoichiometry N (cryo-EM structure [1]): 2
B2 |  | stoichiometry N (cryo-EM structure [2]): 2
B3 | binds | 
B4 | binds | 
